According to the supplement of paper PMC9170038:

Test system: MS2 coat protein
Experiment: apparent KD of MS2 coat protein; designed switch direction (-1 OFF switch, 1 ON switch): 1; higher = weaker reporter binding
Outline: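 Designed RNA switches were transcribed on Illumina chips by stalled E. coli RNA polymerase and titrated with SNAP-549-labelled MS2 coat protein from 0.7 or 1.5 nM, doubling to 3 µM. Step length ran from 0.8–1.5 h at the lowest concentration to 10–20 min at the highest. The apparent KD is the median over clusters for each design, from curve-fitted normalised cluster fluorescence.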

[1] = input ligand: microRNA oligo, concentration not stated
[2] = Eterna round: R95, input ligand: microRNA oligo, concentration not stated
[3] = Eterna round: R95, input ligand: FMN 200 uM
[4] = Eterna round: R95, input ligand: none

Row | Sequence | apparent KD of MS2 coat protein (input ligand: FMN 200 uM) [nM] | apparent KD of MS2 coat protein [1] [nM] | apparent KD of MS2 coat protein (input ligand: none) [nM] | apparent KD of MS2 coat protein [2] [nM] | apparent KD of MS2 coat protein [3] [nM] | apparent KD of MS2 coat protein [4] [nM]
1 | GGACGUCAAUCUCCUAAUUAAACAUGAGGAUCACCCAUGUCACAGGAUAUGAGUCCGAUUAGGACUCAGAAGGGUGAGACGUCC [Fiskers NG3ss - 49] (Eterna round: R96, puzzle: Same State NG 3) | 22.1 | 17.2 | 25.8 | – | – | –
2 | GGAGAACAUGAGGAUCACCCAUGUGGAUGGGCGCUAGGAUAUGCGAGAGGGUGGAGAGAAGCAGAAGGAGUGGAUA [JR_SS1_Sub037] (puzzle: Same State 1) | – | – | – | 50.2 | – | –
3 | GGAGAGAGAGCGCAGGAUAUUCGAGGAGAAACAUGAGGAUCACCCAUGUGAGAGAGAGAGGAGAAGGAGAAGGGUGAGAGAGAGG [Altered State 2-14 - Jieux - Same State 2] (puzzle: Same State 2) | – | – | – | 34.9 | 147 | 32.6
4 | GGAGCCAAGGCAGGAUAUUCAUAUUAACAACAUGAGGAUCACCCAUGUAAGGCCAGAAGGCCUUGGGAGAAGGGCCAUGGCUCG [Xeonanis - 13 mod4] (Eterna round: R96, puzzle: Same State NG 2) | 26.2 | 110 | 187 | – | – | –
5 | GGAGCCAAGGCAGGAUAUUCAUAUUAAUAACACAUGAGGAUCACCCAUGUGGCCAGAAGGCCUUGGGAGAAGGGCCAUGGCUCG [Xeonanis - 13 mod9] (Eterna round: R96, puzzle: Same State NG 2) | 28 | 57.7 | 95.3 | – | – | –
6 | GGAGCCGGCACCGAGGAUAUUCAUAUUAAAACAUGAGGAUCACCCAUGUAGAGCGAAAGCUCUUGGGAGAAGGCGGAUCGGCUCG [Xeonanis - 28] (Eterna round: R96, puzzle: Same State 2) | 34.6 | 488 | 665 | – | – | –
7 | GGAGCCGGCACCGAGGAUAUUCAUAUUAAAACAUGAGGAUCACCCAUGUAGAGCGAAAGCUCUUGGGAGAAGGCGGAUCGGCUCG [Xeonanis - 28] (puzzle: Same State 2) | – | – | – | 672 | 34.1 | 1060
8 | GGAGCCGGCACCGAGGAUAUUCAUAUUAAAACAUGAGGAUCACCCAUGUAGGUCGAAAGACCUUGGGAGAAGGCGGAUCGGCUCG [Xeonanis - 30] (puzzle: Same State 2) | – | – | – | 518 | 38.3 | 803
9 | GGAGCCGGCACUGAGGAUAUUCAUAUUAAAACAUGAGGAUCACCCAUGUAGGCCAGAAGGCCAUGGGAGAAGGCAGGUCGGCCCG [Bibimoar - 7] (puzzle: Same State 2) | – | – | – | 211 | 46.7 | 416
10 | GGAGCCGGCACUGAGGAUAUUCAUAUUAAAACAUGAGGAUCACCCAUGUAGGCCAGAAGGCCUUGGGAGAAGGCAGGUCGGCUCA [Mat - Same State 2 - Mod of UCT - D59] (puzzle: Same State 2) | – | – | – | 235 | 20.5 | 338
11 | GGAGCCGGCACUGAGGAUAUUCAUAUUAAAACAUGAGGAUCACCCAUGUGGGCCAGAAGGCCUUGGGAGAAGGCAGGUCGGCCCG [Bibimoar - 4] (puzzle: Same State 2) | – | – | – | 140 | 20.2 | 183
